Legend:
purified protein [1] = substrate: O=P(O)(O)O[C@H]1O[C@H](CO)[C@@H](O)[C@H](O)[C@@H]1O; test: purified protein; type: biochemical, Homo sapiens; conditions: pH 7.5, 32°C
purified protein [2] = substrate: O=P(O)(O)O[C@H]1O[C@H](CO)[C@@H](O)[C@H](O)[C@H]1O; test: purified protein; type: biochemical, Homo sapiens; conditions: 27 μM Glc-1,6-P2, MgCl2 5 mM, pH 7.5, 32°C

Protein | Km (purified protein [1]; 10 μM Man-1,6-P2, MgCl2 5 mM) [µM] | Km (purified protein [2]) [µM] | Km (purified protein [1]; 3 μM Man-1,6-P2, MgCl2 5 mM) [µM]
PMM1 (phosphomannomutase1) (Homo sapiens; E219K/M186Q/N218D) (protein, recombinant, E. coli BL21(DE3), purified as in earlier work (DEAE, butyl Sepharose); dimer; no tag mentioned) AVTAQAARRKERVLCLFDVDGTLTPARQKIDPEVAAFLQKLRSRVQIGVVGGSDYCKIAEQLGDGDEVIEKFDYVFAENGTVQYKHGRLLSKQTIQNHLGEELLQDLINFCLSYMALLRLPKKRGTFIEFRNGMLNISPIGRSCTLEERIEFSELDKKEKIREKFVEALKTEFAGKGLRFSRGGQISFDVFPEGWDKRYCLDSLDQDSFDTIHFFGDKTSPGGNDFEIFADPRTVGHSVVSPQDTVQRCREIFFPETAHEA | 1.6 ± 0.4 | 3.5 ± 1.3 | –
PMM1 (phosphomannomutase1) (Homo sapiens) (protein, recombinant, E. coli BL21(DE3), purified as in earlier work (DEAE, butyl Sepharose); dimer; no tag mentioned) AVTAQAARRKERVLCLFDVDGTLTPARQKIDPEVAAFLQKLRSRVQIGVVGGSDYCKIAEQLGDGDEVIEKFDYVFAENGTVQYKHGRLLSKQTIQNHLGEELLQDLINFCLSYMALLRLPKKRGTFIEFRNGMLNISPIGRSCTLEERIEFSELDKKEKIREKFVEALKTEFAGKGLRFSRGGMISFDVFPEGWDKRYCLDSLDQDSFDTIHFFGNETSPGGNDFEIFADPRTVGHSVVSPQDTVQRCREIFFPETAHEA | 6.5 ± 1.3 | 7.3 ± 1.7 | –
PMM2 (phosphomannomutase2) (Homo sapiens) (protein, recombinant, E. coli BL21(DE3), purified as in earlier work; no tag mentioned) AAPGPALCLFDVDGTLTAPRQKITKEMDDFLQKLRQKIKIGVVGGSDFEKVQEQLGNDVVEKYDYVFPENGLVAYKDGKLLCRQNIQSHLGEALIQDLINYCLSYIAKIKLPKKRGTFIEFRNGMLNVSPIGRSCSQEERIEFYELDKKENIRQKFVADLRKEFAGKGLTFSIGGQISFDVFPDGWDKRYCLRHVENDGYKTIYFFGDKTMPGGNDHEIFTDPRTMGYSVTAPEDTRRICELLFS | – | – | 23.7 ± 4.5

— article PMC5736207
